Experimental findings from PMC3201865 (Nucleic Acids Research, 2011) are described below.

The assay deals with recombinant full-length USP7 (UniProt Q93009 1-1102). As to the kind of experiment: co-IP.
recombinant full-length USP7, sequence (Q93009 whole entry): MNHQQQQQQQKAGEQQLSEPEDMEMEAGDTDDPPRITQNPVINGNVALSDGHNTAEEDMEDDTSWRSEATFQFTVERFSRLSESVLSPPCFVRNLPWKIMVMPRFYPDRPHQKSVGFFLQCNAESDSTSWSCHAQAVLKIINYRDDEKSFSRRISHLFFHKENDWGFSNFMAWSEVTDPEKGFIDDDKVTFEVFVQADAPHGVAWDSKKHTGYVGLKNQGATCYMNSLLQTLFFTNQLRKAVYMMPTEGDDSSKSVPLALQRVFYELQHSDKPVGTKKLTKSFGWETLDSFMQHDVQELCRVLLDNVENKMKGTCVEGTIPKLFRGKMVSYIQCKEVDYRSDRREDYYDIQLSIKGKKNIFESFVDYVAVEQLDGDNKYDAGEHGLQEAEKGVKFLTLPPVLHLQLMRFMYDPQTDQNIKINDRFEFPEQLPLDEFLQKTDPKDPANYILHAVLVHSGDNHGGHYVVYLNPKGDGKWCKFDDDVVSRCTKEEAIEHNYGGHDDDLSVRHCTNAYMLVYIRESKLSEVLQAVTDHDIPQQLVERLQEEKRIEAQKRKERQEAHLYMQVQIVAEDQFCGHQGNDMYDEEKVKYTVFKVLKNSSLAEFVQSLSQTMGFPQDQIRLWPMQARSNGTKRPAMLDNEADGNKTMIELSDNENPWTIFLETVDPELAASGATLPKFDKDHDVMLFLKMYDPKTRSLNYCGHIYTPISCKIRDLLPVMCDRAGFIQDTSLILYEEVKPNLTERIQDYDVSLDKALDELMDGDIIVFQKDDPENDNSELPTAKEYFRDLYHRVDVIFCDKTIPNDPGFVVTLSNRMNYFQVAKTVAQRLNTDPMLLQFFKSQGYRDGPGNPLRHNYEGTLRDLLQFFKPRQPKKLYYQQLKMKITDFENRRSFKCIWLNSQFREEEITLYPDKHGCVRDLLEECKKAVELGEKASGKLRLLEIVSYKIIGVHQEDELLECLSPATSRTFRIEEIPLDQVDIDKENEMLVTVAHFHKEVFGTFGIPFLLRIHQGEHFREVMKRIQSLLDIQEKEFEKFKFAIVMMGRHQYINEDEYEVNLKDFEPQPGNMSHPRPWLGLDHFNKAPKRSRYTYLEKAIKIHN

B1: recombinant full-length UHRF1 (natural protein)
chain: MWIQVRTMDGRQTHTVDSLSRLTKVEELRRKIQELFHVEPGLQRLFYRGKQMEDGHTLFDYEVRLNDTIQLLVRQSLVLPHSTKERDSELSDTDSGCCLGQSESDKSSTHGEAAAETDSRPADEDMWDETELGLYKVNEYVDARDTNMGAWFEAQVVRVTRKAPSRDEPCSSTSRPALEEDVIYHVKYDDYPENGVVQMNSRDVRARARTIIKWQDLEVGQVVMLNYNPDNPKERGFWYDAEISRKRETRTARELYANVVLGDDSLNDCRIIFVDEVFKIERPGEGSPMVDNPMRRKSGPSCKHCKDDVNRLCRVCACHLCGGRQDPDKQLMCDECDMAFHIYCLDPPLSSVPSEDEWYCPECRNDASEVVLAGERLRESKKKAKMASATSSSQRDWGKGMACVGRTKECTIVPSNHYGPIPGIPVGTMWRFRVQVSESGVHRPHVAGIHGRSNDGAYSLVLAGGYEDDVDHGNFFTYTGSGGRDLSGNKRTAEQSCDQKLTNTNRALALNCFAPINDQEGAEAKDWRSGKPVRVVRNVKGGKNSKYAPAEGNRYDGIYKVVKYWPEKGKSGFLVWRYLLRRDDDEPGPWTKEGKDRIKKLGLTMQYPEGYLEALANREREKENSKREEEEQQEGGFASPRTGKGKWKRKSAGGGPSRAGSPRRTSKKTKVEPYSLTAQQSSLIREDKSNAKLWNEVLASLKDRPASGSPFQLFLSKVEETFQCICCQELVFRPITTVCQHNVCKDCLDRSFRAQVFSCPACRYDLGRSYAMQVNQPLQTVLNQLFPGYGNGR
With B1, the binding result is recorded as “binds”.
